Assay results from US20220298214A1.

Target: GLP-1 receptor (UniProt P43220)
Assay: cell-based or functional assay

Sequence of GLP-1 receptor (P43220 24-463 limits assumed): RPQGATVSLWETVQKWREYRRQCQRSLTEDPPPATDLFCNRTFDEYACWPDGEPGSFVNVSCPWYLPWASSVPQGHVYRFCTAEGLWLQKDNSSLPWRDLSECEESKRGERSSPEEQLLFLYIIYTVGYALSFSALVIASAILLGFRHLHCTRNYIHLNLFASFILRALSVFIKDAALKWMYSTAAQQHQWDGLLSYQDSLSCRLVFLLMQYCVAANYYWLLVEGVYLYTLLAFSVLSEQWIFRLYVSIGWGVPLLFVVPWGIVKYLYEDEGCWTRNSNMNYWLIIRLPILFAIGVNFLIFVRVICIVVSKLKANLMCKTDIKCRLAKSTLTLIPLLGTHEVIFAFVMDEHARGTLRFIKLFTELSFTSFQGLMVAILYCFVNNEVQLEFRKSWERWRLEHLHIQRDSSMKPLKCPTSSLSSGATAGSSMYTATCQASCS

Dulaglutide (Fc fusion)
EC50 value (pM), luciferase reporter gene (CRE-Luc) in HEK293-GLP1R-CRE-Luc cells: 41.2 pM
